The target in experiment [1] is T1, FITC-labeled MyoVa-GTD (human, UniProt Q9Y4I1 1448-1855, fluorescein isothiocyanate (FITC) label, site not stated).
T1 chain: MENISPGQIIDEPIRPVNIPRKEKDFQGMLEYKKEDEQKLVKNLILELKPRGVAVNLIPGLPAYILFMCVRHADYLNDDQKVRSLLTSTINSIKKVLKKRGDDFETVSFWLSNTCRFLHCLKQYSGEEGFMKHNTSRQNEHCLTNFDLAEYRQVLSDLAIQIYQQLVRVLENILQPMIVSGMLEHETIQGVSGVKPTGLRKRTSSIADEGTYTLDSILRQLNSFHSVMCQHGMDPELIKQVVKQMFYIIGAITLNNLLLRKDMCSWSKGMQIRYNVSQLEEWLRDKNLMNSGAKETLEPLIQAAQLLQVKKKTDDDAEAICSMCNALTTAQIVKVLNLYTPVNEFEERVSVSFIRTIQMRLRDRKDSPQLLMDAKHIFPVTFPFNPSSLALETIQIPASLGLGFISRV
In words: MST; 300 nM FITC-labeled MyoVa-GTD, serial dilution of RPGRIP1L-C2 domains; 50 mM HEPES, 150 mM NaCl, 5% glycerol, 0.05% tween-20, pH 7.2; Monolith NT.115, LED power 20%, MST power 60%; triplicate.

The target in experiment [2] is T1, FITC-labeled MyoVa-GTD. In words: MST.

The molecule RPGRIP1L-C2 domains came in with a Kd with FITC-labeled MyoVa-GTD [1] of 3 to 9 µM.

B1: RPGRIP1L-C2MED domain, purified, GST removed (domain or fragment)
chain: STDSTDGNLNELHITIRCCNHLQSRASHLQPHPYVVYKFFDFADHDTAIIPSSNDPQFDDHMYFPVPMNMDLDRYLKSESLSFYVFDDSDTQENIYIGKVNVPLISLAHDRCISGIFELTDHQKHPAGTIHVILKWKFAYLPPSGSITTE
In the experiment with FITC-labeled MyoVa-GTD [2], B1 gave a Kd of 8.9 µM.

B2: RPGRIP1L-C2_(NTERM) domain, purified, GST removed (domain or fragment)
chain: RIHKLEAQLKDIAYGTKQYKFKPEIMPDDSVDEFDETIHLERGENLFEIHINKVTFSSEVLQASGDKEPVTFCTYAFYDFELQTTPVVRGLHPEYNFTSQYLVHVNDLFLQYIQKNTITLEVHQAYSTEYETIAACQLKFHEILEKSGRIFCTASLIGTKGDIPNFGTVEYWFRLRV
Take B2: in the experiment with FITC-labeled MyoVa-GTD [2], the Kd worked out at 2.8 µM. Compared with the last molecule, the Kd is about 3.2-fold lower.

B3: RPGRIP1L-C2_(CTERM) domain, purified, GST removed (domain or fragment)
chain: MQQGKDDVSLLSEGQLAEQSLASSEDETEITEDLEPEVEEDMSASDSDDCIIPGPISKNIKQPSEKIRIEIIALSLNDSQVTMDDTIQRLFVECRFYSLPAEETPVSLPKPKSGQWVYYNYSNVIYVDKENNKAKRDILKAILQKQEMPNRSLRFTVVSDPPEDEQDLECEDIGVAHVDLADMFQEGRDLIEQNIDVFDARADGEGIGKLRVTVEALHALQSVYKQYRDDLEA
In the case of B3, the affinity with FITC-labeled MyoVa-GTD [2], expressed as Kd, was 3.8 µM. This Kd and that of the molecule before are within 1.5-fold of each other.

The record behind these values is publication PMC5339802 (2017).
